Tested on: mouse BRS3 (mBRS3)
Assay: Luciferase reporter, constitutive activity (WT, mutants, truncated; with/without inhibitor)
Type: cell-based
Parameters: key to constitutive luciferase activity: fold over pcDNA-transfected blank control (blank = 1)
Details: for luciferase, CRE / luciferase, NFAT / luciferase, SRE / luciferase, SRF: Blank = 1; for constitutive luciferase activity: no ligand; for CRE luciferase reporter activity relative to Blank (Blank = 1) / NFAT luciferase reporter activity relative to Blank (Blank = 1) / SRF luciferase reporter activity relative to Blank (Blank = 1): constitutive, full-length mBRS3 and truncated N-mBRS3
Protocol: To detect constitutive activity of BRS3, HEK293 cells were seeded in 24-well plates and cotransfected with the CRE/NFAT-RE/SRF-RE/SRE luciferase reporter plasmids (50 ng), the BRS3 from different species, or BRS3 mutants with different doses (10 ng/50 ng/150 ng); after 24 h, cells were further incubated in serum-free media for another 12 h before luciferase assay. As for peptide supplementation treatment, HEK293 cells were cotransfected with the CRE/NFAT-RE/SRF-RE/SRE luciferase reporter plasmids (50 ng) and various genes (300 ng) of the bombesin receptor family. […] Luciferase activities were determined using luciferase assay kits (Beyotime, Shanghai, China) and normalized to β-galactosidase activity. All experiments were performed at least three times in triplicates. HEK293 cells transfected with pcDNA were used as a blank control in all luciferase experiments, and the fold was calculated compared to blank control.

Molecule	constitutive luciferase activity (SRF, mean)	constitutive luciferase activity (SRF, replicate 1)	constitutive luciferase activity (SRF, replicate 2)	constitutive luciferase activity (CRE, mean)	constitutive luciferase activity (CRE, replicate 1)	constitutive luciferase activity (CRE, replicate 2)	other results
mouse (protein, UniProt O54798 1-399, looked up) Bombesin receptor subtype-3: MSQRQSQSPNQTLISITNDTETSSSVVSNDTTHKGWTGDNSPGIEALCAIYITYAGIISVGILGNAILIKVFFKTKSMQTVPNIFITSLAFGDLLLLLTCVPVDATHYLAEGWLFGKVGCKVLSFIRLTSVGVSVFTLTILSADRYKAVVKPLERQPPNAILKTCAKAGGIWIVSMIFALPEAIFSNVYTFQDPNRNVTFESCNSYPISERLLQEIHSLLCFLVFYIIPLSIISVYYSLIARTLYKSTLNIPTEEQSHARKQIESRKRIAKTVLVLVALFALCWLPNHLLYLYHSFTYESYANHSDVPFVIIIFSRVLAFSNSCVNPFALYWLSKTFQQHFKAQLCCLKAEQPEPPLGDIPLNNLTVMGRVPATGSAHVSEISVTLFSGSSAKKGEDKV							luciferase, CRE (value 1 of 3): 19.4537; luciferase, NFAT (value 1 of 3): 19.0254; luciferase, SRE (value 1 of 3): 1.5624; luciferase, SRF (value 1 of 3): 20.3125; luciferase, CRE (value 2 of 3): 18.5759; luciferase, NFAT (value 2 of 3): 18.2536; luciferase, SRE (value 2 of 3): 1.4021; luciferase, SRF (value 2 of 3): 21.0453; luciferase, NFAT (value 3 of 3): 18.6395; luciferase, SRE (value 3 of 3): 1.4823; luciferase, SRF (value 3 of 3): 20.6789
mBRS3-F337A (protein, UniProt O54798 1-399, looked up, variant F337A) Bombesin receptor subtype-3: MSQRQSQSPNQTLISITNDTETSSSVVSNDTTHKGWTGDNSPGIEALCAIYITYAGIISVGILGNAILIKVFFKTKSMQTVPNIFITSLAFGDLLLLLTCVPVDATHYLAEGWLFGKVGCKVLSFIRLTSVGVSVFTLTILSADRYKAVVKPLERQPPNAILKTCAKAGGIWIVSMIFALPEAIFSNVYTFQDPNRNVTFESCNSYPISERLLQEIHSLLCFLVFYIIPLSIISVYYSLIARTLYKSTLNIPTEEQSHARKQIESRKRIAKTVLVLVALFALCWLPNHLLYLYHSFTYESYANHSDVPFVIIIFSRVLAFSNSCVNPFALYWLSKTAQQHFKAQLCCLKAEQPEPPLGDIPLNNLTVMGRVPATGSAHVSEISVTLFSGSSAKKGEDKV	15.0321	15.1183	14.946				
mBRS3 (protein, left off: V5 (from the vector pcDNA3.1-V5-His), end not stated, state not stated | His tag (from the vector pcDNA3.1-V5-His), end not stated, state not stated) MSQRQSQSPNQTLISITNDTETSSSVVSNDTTHKGWTGDNSPGIEALCAIYITYAGIISVGILGNAILIKVFFKTKSMQTVPNIFITSLAFGDLLLLLTCVPVDATHYLAEGWLFGKVGCKVLSFIRLTSVGVSVFTLTILSADRYKAVVKPLERQPPNAILKTCAKAGGIWIVSMIFALPEAIFSNVYTFQDPNRNVTFESCNSYPISERLLQEIHSLLCFLVFYIIPLSIISVYYSLIARTLYKSTLNIPTEEQSHARKQIESRKRIAKTVLVLVALFALCWLPNHLLYLYHSFTYESYANHSDVPFVIIIFSRVLAFSNSCVNPFALYWLSKTFQQHFKAQLCCLKAEQPEPPLGDIPLNNLTVMGRVPATGSAHVSEISVTLFSGSSAKKGEDKV	20.9426	19.9659	21.9194	17.9436	17.8927	17.9945	CRE luciferase reporter activity relative to Blank (Blank = 1) (CRE, replicate 1): 16.331; CRE luciferase reporter activity relative to Blank (Blank = 1) (CRE, replicate 2): 17.4509; CRE luciferase reporter activity relative to Blank (Blank = 1) (CRE, third line, unlabelled, equals mean of the two replicates): 16.8909; NFAT luciferase reporter activity relative to Blank (Blank = 1) (replicate 1): 16.9181; NFAT luciferase reporter activity relative to Blank (Blank = 1) (replicate 2): 16.5656; NFAT luciferase reporter activity relative to Blank (Blank = 1) (third line, unlabelled, equals mean of the two replicates): 16.7418; SRF luciferase reporter activity relative to Blank (Blank = 1) (SRF, replicate 1): 18.8375; SRF luciferase reporter activity relative to Blank (Blank = 1) (SRF, replicate 2): 17.9845; SRF luciferase reporter activity relative to Blank (Blank = 1) (SRF, third line, unlabelled, equals mean of the two replicates): 18.411
mBRS3-Q339A (protein, UniProt O54798 1-399, looked up, variant Q339A) Bombesin receptor subtype-3: MSQRQSQSPNQTLISITNDTETSSSVVSNDTTHKGWTGDNSPGIEALCAIYITYAGIISVGILGNAILIKVFFKTKSMQTVPNIFITSLAFGDLLLLLTCVPVDATHYLAEGWLFGKVGCKVLSFIRLTSVGVSVFTLTILSADRYKAVVKPLERQPPNAILKTCAKAGGIWIVSMIFALPEAIFSNVYTFQDPNRNVTFESCNSYPISERLLQEIHSLLCFLVFYIIPLSIISVYYSLIARTLYKSTLNIPTEEQSHARKQIESRKRIAKTVLVLVALFALCWLPNHLLYLYHSFTYESYANHSDVPFVIIIFSRVLAFSNSCVNPFALYWLSKTFQAHFKAQLCCLKAEQPEPPLGDIPLNNLTVMGRVPATGSAHVSEISVTLFSGSSAKKGEDKV	15.5479	16.2185	14.8773				
mBRS3-A270I (protein, UniProt O54798 1-399, looked up, variant A270I) Bombesin receptor subtype-3: MSQRQSQSPNQTLISITNDTETSSSVVSNDTTHKGWTGDNSPGIEALCAIYITYAGIISVGILGNAILIKVFFKTKSMQTVPNIFITSLAFGDLLLLLTCVPVDATHYLAEGWLFGKVGCKVLSFIRLTSVGVSVFTLTILSADRYKAVVKPLERQPPNAILKTCAKAGGIWIVSMIFALPEAIFSNVYTFQDPNRNVTFESCNSYPISERLLQEIHSLLCFLVFYIIPLSIISVYYSLIARTLYKSTLNIPTEEQSHARKQIESRKRIIKTVLVLVALFALCWLPNHLLYLYHSFTYESYANHSDVPFVIIIFSRVLAFSNSCVNPFALYWLSKTFQQHFKAQLCCLKAEQPEPPLGDIPLNNLTVMGRVPATGSAHVSEISVTLFSGSSAKKGEDKV	14.9649	15.7177	14.2121				
mBRS3-P158A (protein, UniProt O54798 1-399, looked up, variant P158A) Bombesin receptor subtype-3: MSQRQSQSPNQTLISITNDTETSSSVVSNDTTHKGWTGDNSPGIEALCAIYITYAGIISVGILGNAILIKVFFKTKSMQTVPNIFITSLAFGDLLLLLTCVPVDATHYLAEGWLFGKVGCKVLSFIRLTSVGVSVFTLTILSADRYKAVVKPLERQPANAILKTCAKAGGIWIVSMIFALPEAIFSNVYTFQDPNRNVTFESCNSYPISERLLQEIHSLLCFLVFYIIPLSIISVYYSLIARTLYKSTLNIPTEEQSHARKQIESRKRIAKTVLVLVALFALCWLPNHLLYLYHSFTYESYANHSDVPFVIIIFSRVLAFSNSCVNPFALYWLSKTFQQHFKAQLCCLKAEQPEPPLGDIPLNNLTVMGRVPATGSAHVSEISVTLFSGSSAKKGEDKV				15.9368	15.6335	16.2401	
mBRS3-Q156A (protein, UniProt O54798 1-399, looked up, variant Q156A) Bombesin receptor subtype-3: MSQRQSQSPNQTLISITNDTETSSSVVSNDTTHKGWTGDNSPGIEALCAIYITYAGIISVGILGNAILIKVFFKTKSMQTVPNIFITSLAFGDLLLLLTCVPVDATHYLAEGWLFGKVGCKVLSFIRLTSVGVSVFTLTILSADRYKAVVKPLERAPPNAILKTCAKAGGIWIVSMIFALPEAIFSNVYTFQDPNRNVTFESCNSYPISERLLQEIHSLLCFLVFYIIPLSIISVYYSLIARTLYKSTLNIPTEEQSHARKQIESRKRIAKTVLVLVALFALCWLPNHLLYLYHSFTYESYANHSDVPFVIIIFSRVLAFSNSCVNPFALYWLSKTFQQHFKAQLCCLKAEQPEPPLGDIPLNNLTVMGRVPATGSAHVSEISVTLFSGSSAKKGEDKV				16.9342	16.8106	17.0578	

Continued, in another order:

constitutive luciferase activity (SRF, mean)	constitutive luciferase activity (SRF, replicate 1)	constitutive luciferase activity (SRF, replicate 2)	constitutive luciferase activity (CRE, mean)	constitutive luciferase activity (CRE, replicate 1)	constitutive luciferase activity (CRE, replicate 2)	Molecule	other results
19.8563	19.1647	20.5479				mBRS3-R268A (protein, UniProt O54798 1-399, looked up, variant R268A) Bombesin receptor subtype-3: MSQRQSQSPNQTLISITNDTETSSSVVSNDTTHKGWTGDNSPGIEALCAIYITYAGIISVGILGNAILIKVFFKTKSMQTVPNIFITSLAFGDLLLLLTCVPVDATHYLAEGWLFGKVGCKVLSFIRLTSVGVSVFTLTILSADRYKAVVKPLERQPPNAILKTCAKAGGIWIVSMIFALPEAIFSNVYTFQDPNRNVTFESCNSYPISERLLQEIHSLLCFLVFYIIPLSIISVYYSLIARTLYKSTLNIPTEEQSHARKQIESRKAIAKTVLVLVALFALCWLPNHLLYLYHSFTYESYANHSDVPFVIIIFSRVLAFSNSCVNPFALYWLSKTFQQHFKAQLCCLKAEQPEPPLGDIPLNNLTVMGRVPATGSAHVSEISVTLFSGSSAKKGEDKV	
			17.8056	17.9268	17.6843	mBRS3-R370A (protein, UniProt O54798 1-399, looked up, variant R370A) Bombesin receptor subtype-3: MSQRQSQSPNQTLISITNDTETSSSVVSNDTTHKGWTGDNSPGIEALCAIYITYAGIISVGILGNAILIKVFFKTKSMQTVPNIFITSLAFGDLLLLLTCVPVDATHYLAEGWLFGKVGCKVLSFIRLTSVGVSVFTLTILSADRYKAVVKPLERQPPNAILKTCAKAGGIWIVSMIFALPEAIFSNVYTFQDPNRNVTFESCNSYPISERLLQEIHSLLCFLVFYIIPLSIISVYYSLIARTLYKSTLNIPTEEQSHARKQIESRKRIAKTVLVLVALFALCWLPNHLLYLYHSFTYESYANHSDVPFVIIIFSRVLAFSNSCVNPFALYWLSKTFQQHFKAQLCCLKAEQPEPPLGDIPLNNLTVMGAVPATGSAHVSEISVTLFSGSSAKKGEDKV	
